Experimental data: patent US20210009673A1, “METHODS FOR REGULATING BREAST CANCERS” (priority 2018, published 2021)

Assays:
[1] = tested on: EGFR; test: tyrosine phosphorylation of EGFR in HUVS cells; assay type: cell-based, human
Method: FIG. 10: FIG. 10 illustrates: (A), HUVS cells were stimulated with PTN for 2, 5, and 15 minutes. Cell lysates were used to immunoprecipitate EGFR and the immunoprecipitates were analyzed in Western blots probed with anti-phosphotyrosine antibodies. In (B), Lysates from PTN-stimulated HUVS cells that express EGFR were incubated with GST-RPTPβ/ζ D1, GST-RPTPβ/ζ D1 (C1932S), and GST-RPTPβ/ζ D1 (D1900A), a “substrate trap” mutant, which captures the substrate phosphoryl-intermediate in the active site of RPTPβ/ζ with high affinity and specificity. The proteins captured were analyzed in Western blots probed with anti-EGFR antibodies and separately with anti-GST antibodies. In (C), HUVS cells were co-transfected with a full-length EGFR and the vector pC4-Fv1E encoding the Fv domain of FKBP12 needed for enforced dimerization induced by AP20187 (Clackson, Yang et al. 1998) in frame with the intracellular domain of RPTPβ/ζ. AP20187 (2 μM) enforced homodimerization of RPTPβ/ζ and stimulated increase in tyrosine phosphorylation of EGFR 2′, 5′, 10′, and 20′ after stimulation compared with control cells transfected with EGFR alone. (D) A retroviral vector (pSM2) encoding shRNA to “knock down” RPTPβ/ζ was tested in HUVS cells that express endogenous RPTPβ/ζ and EGFR. The cells were stimulated with PTN and cell lysates were used to prepare immunoprecipitates with anti-EGFR antibodies and the immunoprecipitates analyzed in Western blots probed with anti-phosphotyrosine antibodies.
Cell lysates prepared in a lysis buffer containing 50 mM Tris, 150 mM NaCl pH 7.5, 1% NP40, 0.25% sodium deoxycholate, 0.1% SDS, Complete EDTA-free Protease Inhibitor Cocktail (Roche, Indianapolis, Ind.), and 2 mM sodium orthovanadate were pre-cleared by incubation with 2 μg antibodies followed by one hour incubation with protein G-agarose beads. The beads were washed 4 times in the same lysis buffer, eluted in loading buffer containing 240 mM Tris pH 6.8, 40% glycerol, 20% SDS, 2.5% β-mercaptoethanol and 0.01% bromophenol blue and analyzed in Western blots probed with different antibodies as individually described.
PI3K also is activated by an activated Epidermal Growth Factor Receptor (EGFR). We therefore investigated the possibility EGFR is implicated in the translocation of β-catenin to nucleus in PTN-stimulated cells. HUVS were stimulated with PTN for 2, 5, and 15 minutes. Lysates from these cells were immunoprecipitated with anti-EGFR antibodies and the immunoprecipitates were analyzed in Western blots probed with anti-phosphotyrosine antibodies. Tyrosine phosphorylation of EGFR was increased about 5.8-fold at two minutes after HUVS cells were stimulated with PTN, about 11-fold at 5 minutes, and about 5-fold 15 minutes after stimulation with PTN (FIG. 10A).
To establish whether phosphorylation of EGFR is dependent on enforced dimerization of RPTPβ/ζ, which is the consequence of the interaction of PTN with RPTPβ/ζ, HUVS cells were then co-transfected with a full-length EGFR and the vector pC4-Fv1 E. The vector pC4-Fv1 E encodes the Fv domain of FKBP12 in frame with the intracellular domain of RPTPβ/ζ; it effectively enforces dimerization of RPTPβ/ζ when cells are stimulated with AP20187. AP20187 (2 μM) was added to HUVS cells that expressed full-length EGFR and pC4-Fv1 E as above. […]

[2] = tested on: Akt; test: phosphorylation of Akt in PTN-stimulated HUVS cells; assay type: cell-based, human; settings: PTN 50 ng/ml, 5 minutes, elevated at 20 minutes
Method: FIG. 11: FIG. 11 illustrates: human umbilical vein stromal cells not stimulated or stimulated with 50 ng/ml of PTN for 2, 5, 10 or 20 minutes were used to prepare cell lysates that were analyzed in Western blots probed with anti-phospho threonine 308 Akt (panel A), anti-phospho serine 473 Akt (panel B), anti-phospho-serine 9 GSK3β (panel C), anti-phospho-serine 33, 37 and […] β-catenin (panel D) or anti-actin antibodies (panel E). Akt was immunoprecipitated from those lysates using anti-Akt antibodies, incubated with a fusion peptide containing the 20 N-terminal amino acids of GSK3β and analyzed in Western-blots probed using anti-phospho-serine 9 GSK3β antibodies (panel F).
To pursue this pathway of nuclear import of β-catenin, HUVS cells were stimulated with PTN (50 ng/ml), lysed, and analyzed in Western blots probed with anti-phosphothreonine 308 Akt or anti-phosphoserine 473 Akt antibodies (FIG. 11, panel A and B). […]
The association of adaptor proteins that associate with specific phosphorylated sites in activated EGFR are responsible for the activation of phosphatidyl-inositol 3-kinase (PI3K). […] The cells were stimulated with PTN for 2, 5, 10, and 20 minutes, cell lysates were prepared, and the lysates were analyzed in Western blots probed with anti-phospho-Akt (Ser473), anti-phospho-GSKβ (Ser9), and anti-phospho-β-catenin (Thr42) antibodies. […]

B1: pleiotrophin (protein, UniProt P21246 33-168, looked up)
Pleiotrophin: GKKEKPEKKVKKSDCGEWQWSVCVPTSGDCGLGTREGTRTGAECKQTMKTQRCKIPCNWKKQFGAECKYQFQAWGECDLNTALKTRTGSLKRALHNAECQKTVTISKPCGKLTKPKPQAESKKKKKEGKKQEKMLD
increase in tyrosine phosphorylation of EGFR ([1]; 5 minutes after PTN): about 11 fold
increase in tyrosine phosphorylation of EGFR ([1]; 15 minutes after PTN): about 5 fold
tyrosine phosphorylation of EGFR ([1]; RPTPβ/ζ knocked down with shRNA): failed to stimulate
increase in tyrosine phosphorylation of EGFR ([1]; cells transfected with pSM2 control vector): ~5 fold
increase in tyrosine phosphorylation of EGFR ([1]; two minutes after PTN): about 5.8 fold
phosphorylation of Akt threonine 308 and serine 473 [2]: rapid increase
